Experiments:
human STEAP1 [1] = molecular target: human STEAP1 (human); experiment: FACS, LNCaP-X1.2 cells, bivalent
cynomolgus STEAP1 = cynomolgus STEAP1 (cynomolgus monkey); experiment: KinExA, monovalent, live 293 cells
human STEAP1 [2] = molecular target: human STEAP1 (human); experiment: KinExA, monovalent, live 293 cells

human STEAP1 (human), sequence (chain, as listed by the source): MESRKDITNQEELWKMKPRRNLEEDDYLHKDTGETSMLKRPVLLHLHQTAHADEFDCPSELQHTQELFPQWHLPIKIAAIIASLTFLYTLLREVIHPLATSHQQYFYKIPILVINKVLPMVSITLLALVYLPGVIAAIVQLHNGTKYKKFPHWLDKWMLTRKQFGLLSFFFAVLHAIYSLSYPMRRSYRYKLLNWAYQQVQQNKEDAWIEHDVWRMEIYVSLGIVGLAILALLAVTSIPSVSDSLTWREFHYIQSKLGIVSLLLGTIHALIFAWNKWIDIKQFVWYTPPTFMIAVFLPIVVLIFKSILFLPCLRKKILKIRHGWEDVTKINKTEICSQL
cynomolgus STEAP1 (cynomolgus monkey), sequence (chain, as listed by the source): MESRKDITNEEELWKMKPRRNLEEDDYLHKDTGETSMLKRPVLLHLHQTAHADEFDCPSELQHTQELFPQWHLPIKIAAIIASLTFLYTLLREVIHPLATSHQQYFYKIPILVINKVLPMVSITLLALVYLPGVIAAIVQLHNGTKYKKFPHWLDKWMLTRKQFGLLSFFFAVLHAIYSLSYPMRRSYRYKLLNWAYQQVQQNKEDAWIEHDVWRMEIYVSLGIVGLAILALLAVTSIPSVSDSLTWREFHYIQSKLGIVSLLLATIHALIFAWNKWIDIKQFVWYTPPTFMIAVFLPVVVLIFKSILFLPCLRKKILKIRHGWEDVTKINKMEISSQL

EC50 (human STEAP1 [1]) [nM]	Kd (cynomolgus STEAP1) [nM]	Kd (human STEAP1 [2]) [nM]	Binder
3.5	–	–	vandortuzumab (antibody, V domains shown) VH: EVQLVESGGGLVQPGGSLRLSCAVSGYSITSDYAWNWVRQAPGKGLEWVGYISNSGSTSYNPSLKSRFTISRDTSKNTLYLQMNSLRAEDTAVYYCARERNYDYDDYYYAMDYWGQGTLVTVSS VL: DIQMTQSPSSLSASVGDRVTITCKSSQSLLYRSNQKNYLAWYQQKPGKAPKLLIYWASTRESGVPSRFSGSGSGTDFTLTISSLQPEDFATYYCQQYYNYPRTFGQGTKVEIK
–	14	29	huAb44.v6.05-40G5c (STEAP1 arm) (antibody, V domains shown) VH: EVQLVESGGGLVQPGGSLRLSCAASGFTFSDHYMAWVRQAPGKGLVWVSYIDYDGGSTSYGDSVKGRFTISRDNAKSTLYLQMNSLRAEDTAVYYCARRSGFYHVGYAMNAWGQGTTVTVSS VL: DIVLTQTPLSLSVTPGQPASISCRSSQSLEYSDGYTYLEWYLQKPGQSPQLLIYGVSNRFSGVPDRFSGSGSGTDFTLKISRVEAEDVGVYYCFQATHDPLTFGGGTKVEIK
1.9	–	–	huAb44.v6.05 (antibody, V domains shown) VH: EVQLVESGGGLVQPGGSLRLSCAASGFTFSDHYMAWVRQAPGKGLVWVSYIDYDGGSTSYGDSVKGRFTISRDNAKSTLYLQMNSLRAEDTAVYYCARRSGFYHVGYAMNAWGQGTTVTVSS VL: DIVLTQTPLSLSVTPGQPASISCRSSQSLEYSDGYTYLEWYLQKPGQSPQLLIYGVSNRFSGVPDRFSGSGSGTDFTLKISRVEAEDVGVYYCFQATHDPLTFGGGTKVEIK

Reference: patent US20260365758 (published 2026)
